Experiment [1] has as its target T1, mFc-hNKG2D (recombinant mFc-tagged human NKG2D dimer) (human, UniProt P26718 73-216).
T1 construct: extracellular domain; Made in house; not shown: mouse Fc tag
T1 sequence (looked up): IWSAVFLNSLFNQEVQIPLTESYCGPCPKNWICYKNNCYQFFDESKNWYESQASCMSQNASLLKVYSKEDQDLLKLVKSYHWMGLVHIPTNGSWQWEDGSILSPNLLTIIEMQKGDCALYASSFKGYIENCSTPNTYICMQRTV
The experiment can be described thus: SPR; after pH 5.0, 40C, 2 wks (n = 2). (SPR reads the build-up and loss of mass on a sensor chip optically.)

Experiment [2] deals with T2, Human CLEC12A-His (recombinant, K244 WT) (human, UniProt Q5QGZ9 65-265).
T2 construct: Made in house (Dragonfly Tx); also called hCLEC12A; hCLEC12A-His; not shown: His tag
T2 sequence: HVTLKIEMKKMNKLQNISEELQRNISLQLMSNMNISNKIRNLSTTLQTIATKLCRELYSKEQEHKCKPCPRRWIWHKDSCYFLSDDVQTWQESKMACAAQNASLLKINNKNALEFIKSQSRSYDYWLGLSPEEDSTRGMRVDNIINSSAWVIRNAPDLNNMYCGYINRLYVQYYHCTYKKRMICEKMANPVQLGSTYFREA
The experiment can be described thus: SPR 37C, AB0089 captured on anti-hFc, two-state fit (ka1).

Experiment [3] deals with T2, Human CLEC12A-His (recombinant, K244 WT). The experiment can be described thus: SPR, two-state fit; control sample.
The target in experiment [4] is T3, Cynomolgus CD16 (FcγRIII) (cynomolgus monkey, UniProt Q8SPW2 17-208, biotinylated).
T3 construct: Bought recombinant receptor; also called cFcγRIII; Cyno FcγRIII
The experiment can be described thus: SPR 25C, biotinylated cyno CD16 captured.

Experiment [5] deals with T2, Human CLEC12A-His (recombinant, K244 WT). The experiment can be described thus: SPR, two-state fit; control sample. The source holds these as a separate data set.

Where “and” joins values, the source holds several entries; their conditions need not be identical. Equal values may be shown once. Read-outs that look alike come from different tables or passages of the source.

Our source for the Kd, koff and kon values is patent US20220119534A1 (DRAGONFLY THERAPEUTICS, published 2022).

T3 sequence (Q8SPW2 17-208 limits assumed): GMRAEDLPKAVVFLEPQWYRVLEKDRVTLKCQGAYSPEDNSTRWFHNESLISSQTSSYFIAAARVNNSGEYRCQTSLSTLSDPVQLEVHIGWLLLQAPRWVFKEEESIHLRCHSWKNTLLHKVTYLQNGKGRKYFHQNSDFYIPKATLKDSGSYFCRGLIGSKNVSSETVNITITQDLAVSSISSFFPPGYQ

B1: AB0089 TriNKET (bispecific antibody, human IgG1, kappa)
chain: QLQLQESGPGLVKPSETLSLTCTVSGFSLTNYGLHWIRQPPGKCLEWIGVIWVGGATDYNPSLKSRVTISVDTSKNQFSLKLSSVQAADTAVYYCAKGDYGDTLDYWGQGTLVTVSSGGGGSGGGGSGGGGSGGGGSDIQMTQSPSSLSASVGDRVTITCHASQNINFWLSWYQQKPGKAPKLLIYEASNLHTGVPSRFSGSGSGTDFTLTISSLQPEDFATYYCQQSHSYPLTFGCGTKLEIKGSDKTHTCPPCPAPELLGGPSVFLFPPKPKDTLMISRTPEVTCVVVDVSHEDPEVKFNWYVDGVEVHNAKTKPREEQYNSTYRVVSVLTVLHQDWLNGKEYKCKVSNKALPAPIEKTISKAKGQPREPRVYTLPPCRDELTKNQVSLTCLVKGFYPSDIAVEWESNGQPENNYKTTPPVLVSDGSFTLYSKLTVDKSRWQQGNVFSCSVMHEALHNHYTQKSLSLSPG
heavy: EVQLVESGGGLVKPGGSLRLSCAASGFTFSSYSMNWVRQAPGKGLEWVSSISSSSSYIYYADSVKGRFTISRDNAKNSLYLQMNSLRAEDTAVYYCARGAPIGAAAGWFDPWGQGTLVTVSSASTKGPSVFPLAPSSKSTSGGTAALGCLVKDYFPEPVTVSWNSGALTSGVHTFPAVLQSSGLYSLSSVVTVPSSSLGTQTYICNVNHKPSNTKVDKKVEPKSCDKTHTCPPCPAPELLGGPSVFLFPPKPKDTLMISRTPEVTCVVVDVSHEDPEVKFNWYVDGVEVHNAKTKPREEQYNSTYRVVSVLTVLHQDWLNGKEYKCKVSNKALPAPIEKTISKAKGQPREPQVCTLPPSRDELTENQVSLTCLVKGFYPSDIAVEWESNGQPENNYKTTPPVLDSDGSFFLYSWLTVDKSRWQQGNVFSCSVMHEALHNHYTQKSLSLSPG
light: DIQMTQSPSSVSASVGDRVTITCRASQGISSWLAWYQQKPGKAPKLLIYAASSLQSGVPSRFSGSGSGTDFTLTISSLQPEDFATYYCQQGVSFPRTFGGGTKVEIKRTVAAPSVFIFPPSDEQLKSGTASVVCLLNNFYPREAKVQWKVDNALQSGNSQESVTEQDSKDSTYSLSSTLTLSKADYEKHKVYACEVTHQGLSSPVTKSFNRGEC
notes: F3' format heterodimer of three chains; human IgG1 Fc with EW-RVT and Y349C/S354C mutations; also called AB0089 Lot AB0089-002; CLEC12A TriNKET AB0089
One may read the Kd as a measure of binding affinity in units of concentration. In general, koff refers to the first-order rate constant of dissociation. A word on the kon: it is the second-order rate constant of association. Consider B1, for which the dissociation constant (Kd) in experiment [1] is 703 nM; in experiment [3], 0.9 nM; in experiment [4], 351 nM and 347 nM and 348 nM; in experiment [5] it was 1 nM. In experiment [1], the off-rate (koff) amounted to 0.131 s⁻¹. In addition, the kon in experiment [1] is 187000 M⁻¹ s⁻¹; in experiment [2], 1.1e+07 M⁻¹ s⁻¹ (2×) and 1e+07 M⁻¹ s⁻¹ (2×).
